Measured values published in patent publication US11692029B2, “Therapy for glaucoma and optic neuropathy by targeting colony stimulating factors” (The Schepens Eye Research Institute, Inc., priority 2018, dated 2023).
Entries after “also recorded” stand apart in the source; their conditions may differ.

How the values were obtained:
[1] = system: retinal ganglion cells (RGC); assay: RGC loss (anti-Brn3a RGC counts, whole-mount retina) in microbead-induced glaucoma mice; type: in vivo; details: MB-injected high-IOP mice, intravitreal treatment, versus vehicle/saline-treated mice
From the text: (§1) FIG. 3A is a line graph showing the intraocular pressure (IOP) level at baseline and up to 42 days/6 weeks post-MB injection of mice receiving either intravitreal injections of CSF1R Ab, CSF2, CSF1R Ab+CSF2 or control vehicle at D3 and D7. FIG. 3B is a bar graph showing the ratio of positive scotopic threshold response (pSTR) of glaucoma eye to contralateral normal eye. FIG. 3C is a bar graph showing the contrast sensitivity (CS) of the OMR. FIG. 3D is a bar graph showing Retinal Ganglion Cells (RGC) density of control (Ctr), vehicle (Veh) and CSF1R Ab, CSF2 and CSF2+CSF1 Ab-treated groups. Note Ctr group are the uninjured eyes. FIGS. 3E-3G are photomicrographs of Brn3a+RGCs (red) at 6 week post-injection of microbeads. In these figures (FIGS. 3A-G), ‘#’ and ‘*’ represents statistical analysis comparing to control and vehicle group, respectively. *, ** and *** represent P value <0.05, 0.01 and 0.001, respectively. #, ## and ### represent P value <0.05, <0.01 and <0.001.
(§2) FIG. 7 is a schematic representation showing the experimental design. […]
Microbeads (MB) were injected into the anterior chamber of adult B6 mice to induce high IOP. The expression of CSF1/2 and their receptors was examined by immunostaining and quantitative polymerase chain reaction (qPCR) at different time points after MB injection. […]

[2] = system: retinal function (pSTR); assay: positive scotopic threshold response (pSTR) in microbead-induced glaucoma mice; type: in vivo; details: MB-induced glaucomatous mice, intravitreal treatment, 4 and 6 weeks after MB injection, versus vehicle
From the text: as §1, §2
The function of retinal ganglion cells (RGCs) can be non-invasively assessed in experimental and genetic models of glaucoma by means of variants of the ERG technique that emphasize the activity of inner retina neurons. […]

[3] = system: visual function; assay: visual function (contrast sensitivity and visual acuity) in microbead-induced glaucoma mice; type: in vivo; details: MB-induced glaucomatous mice, intravitreal treatment, 4 and 6 weeks after MB injection, versus vehicle
From the text: as §1, with “<0.001. […] FIG. 7 is a schematic representation showing the experimental design. It was hypothesized that inhibiting CSF1 by administration of CSF1R antibody (CSF1R Ab) and/or promoting CSF2 signaling protect RGC against glaucomatous damage. Four experimental groups were proposed: following MB-injection to induce high IOP, mice received treatment of vehicle (PBS), CSF1R Ab, CSF2, or CSF1R Ab+CSF2 were studied. […]” for “<0.001.”

[4] = system: microglia; assay: microglial activation in a glaucoma mouse model; type: in vivo, mice; details: intravitreal injection
From the text: Activation of microglia plays a critical role in the progression of neurodegeneration in glaucoma. Colony stimulating factor 1 (CSF1) and colony stimulating factor 2 (CSF2) are involved in glaucomatous neuron loss by regulating microglia function.

[5] = listed as CSF2 recombinant protein

B1: CSF2: Granulocyte-macrophage colony-stimulating factor recombinant protein; exemplary source Peprotech Recombinant Murine GM-CSF, Cat #: 315-03 (protein, UniProt P01587 18-141, looked up)
Granulocyte-macrophage …: APTRSPITVTRPWKHVEAIKEALNLLDDMPVTLNEEVEVVSNEFSFKKLTCVQTRLKIFEQGLRGNFTKLKGALNMTASYYQTYCPPTPETDCETQVTTYADFIDSLKTFLTDIPFECKKPGQK
Question: What does the source list for B1?
Answer: RGC loss [1]: decreased RGC loss; also recorded: reduced or attenuated glaucomatous RGC loss; RGC loss [1, 5]: protected the loss of retinal ganglion cells (RGCs); pSTR amplitude [2]: pSTR increased; visual function (vision contrast sensitivity and visual acuity) [3]: visual function increased; visual function (vision contrast sensitivity and visual acuity) [3, 5]: protected the loss of retinal ganglion cells (RGCs) and vision function; microglial activation [4]: significantly suppressed microglial activation
